According to patent publication US20260167699A1 (Chugai, published 2026):
Residue numbers refer to the chain shown, from its start.

Experiments:
Assay in all cases: SPR; % of GpH7-A5/GpH7-B3/GpL16-k0
[1] = target: T1, FcγRIIb extracellular domain with C-terminal His tag (human, UniProt P31994 43-217)
T1 construct: extracellular domain; also called 2b; CD32
T1 sequence: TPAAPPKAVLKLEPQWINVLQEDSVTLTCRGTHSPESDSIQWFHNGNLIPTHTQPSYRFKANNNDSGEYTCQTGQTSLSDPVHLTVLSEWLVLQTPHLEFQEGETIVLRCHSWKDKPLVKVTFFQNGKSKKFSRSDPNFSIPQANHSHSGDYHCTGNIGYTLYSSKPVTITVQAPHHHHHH

[2] = target: T2, FcγRIIa(H) extracellular domain with C-terminal His tag (human, UniProt P12318 34-217)
T2 construct: extracellular domain; H131 allotype; also called 2aH; CD32
T2 sequence: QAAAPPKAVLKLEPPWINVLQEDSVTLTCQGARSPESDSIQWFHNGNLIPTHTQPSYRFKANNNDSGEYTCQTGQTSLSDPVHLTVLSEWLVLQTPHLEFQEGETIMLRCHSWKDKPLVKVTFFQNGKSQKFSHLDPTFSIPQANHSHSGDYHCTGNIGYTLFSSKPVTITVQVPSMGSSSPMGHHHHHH

[3] = target: T3, FcγRIIIa extracellular domain with C-terminal His tag (human, UniProt P08637 17-208)
T3 construct: extracellular domain; also called 3a; CD16
T3 sequence (P08637 other isoform, or with tags, fused parts or gaps): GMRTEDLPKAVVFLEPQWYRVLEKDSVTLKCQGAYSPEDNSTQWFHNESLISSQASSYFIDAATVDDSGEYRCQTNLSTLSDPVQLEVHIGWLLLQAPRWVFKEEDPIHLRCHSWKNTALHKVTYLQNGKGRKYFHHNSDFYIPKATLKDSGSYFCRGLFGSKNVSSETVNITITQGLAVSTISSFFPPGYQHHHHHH

[4] = target: T4, FcγRIa extracellular domain with C-terminal His tag (human, UniProt P12314 16-292)
T4 construct: extracellular domain; also called 1a; CD64
T4 sequence (P12314 other isoform, or with tags, fused parts or gaps): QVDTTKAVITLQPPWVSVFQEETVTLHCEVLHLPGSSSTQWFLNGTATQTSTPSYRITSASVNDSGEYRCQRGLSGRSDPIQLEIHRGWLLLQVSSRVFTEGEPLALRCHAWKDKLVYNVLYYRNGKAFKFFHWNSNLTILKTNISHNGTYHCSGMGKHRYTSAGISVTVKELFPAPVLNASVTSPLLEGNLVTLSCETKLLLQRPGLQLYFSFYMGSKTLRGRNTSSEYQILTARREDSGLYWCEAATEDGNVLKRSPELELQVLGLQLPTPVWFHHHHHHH

[5] = target: T5, FcγRIIa(R) extracellular domain with C-terminal His tag (human, UniProt P12318 34-217)
T5 construct: extracellular domain; R131 allotype; also called 2aR; CD32
T5 sequence: T2 sequence with H134R

B1: GpH7-A5/GpH7-B3 variant K334_13S/GpL16-k0 (antibody, human IgG1, kappa)
heavy 1: not shown
heavy 2: not shown
light: DIVMTQSPLSLPVTPGEPASISCQASESLVHSNRNTYLHWYLQKPGQSPQLLIYKVSNRFSGVPDRFSGSGSGTDFTLKISRVEAEDVGVYYCSQNTHVPPTFGQGTKVEIERTVAAPSVFIFPPSDEQLKSGTASVVCLLNNFYPREAKVQWKVDNALQSGNSQESVTEQDSKDSTYSLSSTLTLSKADYEKHKVYACEVTHQGLSSPVTKSFNRGEC
notes: heterodimerized IgG1 (He Ab), mutation in one H chain only; also called He Ab
He/Con 2b [1]: 143% | He/Con 2aH [2]: 116% | He/Con 3a [3]: 150% | He/Con 1a [4]: 99.3% | He/Con 2aR [5]: 149%

B2: GpH7-A5/GpH7-B3 variant K334_16H/GpL16-k0 (antibody, human IgG1, kappa)
heavy 1: not shown
heavy 2: not shown
light: B1 light
notes: as for B1
He/Con 2b [1]: 146% | He/Con 2aH [2]: 119% | He/Con 3a [3]: 138% | He/Con 1a [4]: 99.3% | He/Con 2aR [5]: 149%

B3: GpH7-A5/GpH7-B3 variant P331_02A/GpL16-k0 (antibody, human IgG1, kappa)
heavy 1: not shown
heavy 2: not shown
light: B1 light
notes: as for B1
He/Con 2b [1]: 110% | He/Con 2aH [2]: 93.9% | He/Con 3a [3]: 82.5% | He/Con 1a [4]: 105% | He/Con 2aR [5]: 105%

B4: GpH7-A5/GpH7-B3 variant P331_10E/GpL16-k0 (antibody, human IgG1, kappa)
heavy 1: not shown
heavy 2: not shown
light: B1 light
notes: as for B1
He/Con 2b [1]: 128% | He/Con 2aH [2]: 90.1% | He/Con 3a [3]: 68.7% | He/Con 1a [4]: 108% | He/Con 2aR [5]: 112%

B5: GpH7-A5/GpH7-B3 variant P331_06M/GpL16-k0 (antibody, human IgG1, kappa)
heavy 1: not shown
heavy 2: not shown
light: B1 light
notes: as for B1
He/Con 2b [1]: 113% | He/Con 2aH [2]: 88.1% | He/Con 3a [3]: 68.4% | He/Con 1a [4]: 106% | He/Con 2aR [5]: 105%

B6: GpH7-A5/GpH7-B3 variant P331_13S/GpL16-k0 (antibody, human IgG1, kappa)
heavy 1: not shown
heavy 2: not shown
light: B1 light
notes: as for B1
He/Con 2b [1]: 107% | He/Con 2aH [2]: 94% | He/Con 3a [3]: 80.9% | He/Con 1a [4]: 108% | He/Con 2aR [5]: 104%

B7: GpH7-A5/GpH7-B3 variant P331_12R/GpL16-k0 (antibody, human IgG1, kappa)
heavy 1: not shown
heavy 2: not shown
light: B1 light
notes: as for B1
He/Con 2b [1]: 85% | He/Con 2aH [2]: 84.3% | He/Con 3a [3]: 64.8% | He/Con 1a [4]: 100% | He/Con 2aR [5]: 88.7%

B8: GpH7-A5/GpH7-B3 variant K334_18N/GpL16-k0 (antibody, human IgG1, kappa)
heavy 1: not shown
heavy 2: not shown
light: B1 light
notes: as for B1
He/Con 2b [1]: 148% | He/Con 2aH [2]: 114% | He/Con 3a [3]: 140% | He/Con 1a [4]: 99% | He/Con 2aR [5]: 152%

B9: GpH7-A5/GpH7-B3 variant P331_11K/GpL16-k0 (antibody, human IgG1, kappa)
heavy 1: not shown
heavy 2: not shown
light: B1 light
notes: as for B1
He/Con 2b [1]: 93.9% | He/Con 2aH [2]: 83.7% | He/Con 3a [3]: 61.8% | He/Con 1a [4]: 100% | He/Con 2aR [5]: 94.6%

B10: GpH7-A5/GpH7-B3 variant P331_16H/GpL16-k0 (antibody, human IgG1, kappa)
heavy 1: not shown
heavy 2: not shown
light: B1 light
notes: as for B1
He/Con 2b [1]: 128% | He/Con 2aH [2]: 87.5% | He/Con 3a [3]: 73.4% | He/Con 1a [4]: 105% | He/Con 2aR [5]: 113%

B11: GpH7-A5/GpH7-B3 variant P331_04F/GpL16-k0 (antibody, human IgG1, kappa)
heavy 1: not shown
heavy 2: not shown
light: B1 light
notes: as for B1
He/Con 2b [1]: 122% | He/Con 2aH [2]: 87.7% | He/Con 3a [3]: 70.7% | He/Con 1a [4]: 108% | He/Con 2aR [5]: 110%

B12: GpH7-A5/GpH7-B3 variant K334_20W/GpL16-k0 (antibody, human IgG1, kappa)
heavy 1: not shown
heavy 2: not shown
light: B1 light
notes: as for B1
He/Con 2b [1]: 134% | He/Con 2aH [2]: 112% | He/Con 3a [3]: 132% | He/Con 1a [4]: 99.9% | He/Con 2aR [5]: 143%

B13: GpH7-A5/GpH7-B3 variant K334_15Y/GpL16-k0 (antibody, human IgG1, kappa)
heavy 1: not shown
heavy 2: not shown
light: B1 light
notes: as for B1
He/Con 2b [1]: 141% | He/Con 2aH [2]: 122% | He/Con 3a [3]: 145% | He/Con 1a [4]: 99.1% | He/Con 2aR [5]: 148%

B14: GpH7-A5/GpH7-B3 variant P331_14T/GpL16-k0 (antibody, human IgG1, kappa)
heavy 1: not shown
heavy 2: not shown
light: B1 light
notes: as for B1
He/Con 2b [1]: 111% | He/Con 2aH [2]: 86.5% | He/Con 3a [3]: 67.8% | He/Con 1a [4]: 102% | He/Con 2aR [5]: 104%

B15: GpH7-A5/GpH7-B3 variant P331_08L/GpL16-k0 (antibody, human IgG1, kappa)
heavy 1: not shown
heavy 2: not shown
light: B1 light
notes: as for B1
He/Con 2b [1]: 106% | He/Con 2aH [2]: 85.9% | He/Con 3a [3]: 66% | He/Con 1a [4]: 105% | He/Con 2aR [5]: 101%

B16: GpH7-A5/GpH7-B3 variant K334_19Q/GpL16-k0 (antibody, human IgG1, kappa)
heavy 1: not shown
heavy 2: not shown
light: B1 light
notes: as for B1
He/Con 2b [1]: 141% | He/Con 2aH [2]: 116% | He/Con 3a [3]: 140% | He/Con 1a [4]: 100% | He/Con 2aR [5]: 149%

B17: GpH7-A5/GpH7-B3 variant P331_03V/GpL16-k0 (antibody, human IgG1, kappa)
heavy 1: not shown
heavy 2: not shown
light: B1 light
notes: as for B1
He/Con 2b [1]: 132% | He/Con 2aH [2]: 85.4% | He/Con 3a [3]: 66.9% | He/Con 1a [4]: 104% | He/Con 2aR [5]: 114%

B18: GpH7-A5/GpH7-B3 variant K334_14T/GpL16-k0 (antibody, human IgG1, kappa)
heavy 1: not shown
heavy 2: not shown
light: B1 light
notes: as for B1
He/Con 2b [1]: 149% | He/Con 2aH [2]: 118% | He/Con 3a [3]: 146% | He/Con 1a [4]: 99.2% | He/Con 2aR [5]: 153%

B19: GpH7-A5/GpH7-B3 variant P331_15Y/GpL16-k0 (antibody, human IgG1, kappa)
heavy 1: not shown
heavy 2: not shown
light: B1 light
notes: as for B1
He/Con 2b [1]: 127% | He/Con 2aH [2]: 89% | He/Con 3a [3]: 74.9% | He/Con 1a [4]: 109% | He/Con 2aR [5]: 112%

B20: GpH7-A5/GpH7-B3 variant P331_09D/GpL16-k0 (antibody, human IgG1, kappa)
heavy 1: not shown
heavy 2: not shown
light: B1 light
notes: as for B1
He/Con 2b [1]: 104% | He/Con 2aH [2]: 93.6% | He/Con 3a [3]: 71.6% | He/Con 1a [4]: 109% | He/Con 2aR [5]: 101%

B21: GpH7-A5/GpH7-B3 variant P331_07I/GpL16-k0 (antibody, human IgG1, kappa)
heavy 1: not shown
heavy 2: not shown
light: B1 light
notes: as for B1
He/Con 2b [1]: 127% | He/Con 2aH [2]: 80.1% | He/Con 3a [3]: 60.4% | He/Con 1a [4]: 106% | He/Con 2aR [5]: 109%
